From the supplement of paper PMC10567573

B1: ZNF449 (parent)
chain: FQEYDTDCEVFRQRFRQFQYREAA

Variants of: B1
Assay: protein stability index of a GFP-peptide fusion (GPS, HEK-293T) (PSI 1-6); higher = more stable
Conditions: c terminus: a fixed tail appended
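Note: lentivirally expressed fusions sorted by FACS into six bins by GFP to DsRed ratio, PSI derived from sequencing read proportions per bin multiplied by bin number.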

Variant	protein stability index
FQEYDTDCEVFHQRFRQFQYREAA [R12H]	2.3
FQEYDTDCEVFMQRFRQFQYREAA [R12M]	2.24
FQEYDTDCEVFKQRFRQFQYREAA [R12K]	2.38
FQEYDTDCEVFYQRFRQFQYREAA [R12Y]	2.06
FQEYDTDCEVFQQRFRQFQYREAA [R12Q]	2.61
FQEYDTDCEVFGQRFRQFQYREAA [R12G]	2.57
FQEYDTDCEVFAQRFRQFQYREAA [R12A]	3.29
FQEYDTDCEVFDQRFRQFQYREAA [R12D]	3.31
FQEYDTDCEVFWQRFRQFQYREAA [R12W]	1.94
FQEYDTDCEVFTQRFRQFQYREAA [R12T]	2.41
FQEYDTDCEVFSQRFRQFQYREAA [R12S]	2.53
FQEYDTDCEVFNQRFRQFQYREAA [R12N]	2.27
FQEYDTDCEVFLQRFRQFQYREAA [R12L]	1.97
FQEYDTDCEVFIQRFRQFQYREAA [R12I]	2.14
FQEYDTDCEVFVQRFRQFQYREAA [R12V]	2.21
FQEYDTDCEVFCQRFRQFQYREAA [R12C]	1.71
FQEYDTDCEVFPQRFRQFQYREAA [R12P]	2.35
FQEYDTDCEVFFQRFRQFQYREAA [R12F]	2.54
FQEYDTDCEVFEQRFRQFQYREAA [R12E]	2.48
FQEYDTDCHVFRQRFRQFQYREAA [E9H]	1.6
FQEYDTDCGVFRQRFRQFQYREAA [E9G]	2.29
FQEYDTDCIVFRQRFRQFQYREAA [E9I]	2.47
FQEYDTDCNVFRQRFRQFQYREAA [E9N]	2.35
FQEYDTDCPVFRQRFRQFQYREAA [E9P]	2.46

Variant	protein stability index
FQEYDTDCLVFRQRFRQFQYREAA [E9L]	1.67
FQEYDTDCFVFRQRFRQFQYREAA [E9F]	1.96
FQEYDTDCYVFRQRFRQFQYREAA [E9Y]	1.27
FQEYDTDCQVFRQRFRQFQYREAA [E9Q]	1.88
FQEYDTDCKVFRQRFRQFQYREAA [E9K]	2.21
FQEYDTDCVVFRQRFRQFQYREAA [E9V]	1.79
FQEYDTDCDVFRQRFRQFQYREAA [E9D]	2.16
FQEYDTDCAVFRQRFRQFQYREAA [E9A]	2
FQEYDTDCCVFRQRFRQFQYREAA [E9C]	1.76
FQEYDTDCSVFRQRFRQFQYREAA [E9S]	1.54
FQEYDTDCMVFRQRFRQFQYREAA [E9M]	2.65
FQEYDTDCTVFRQRFRQFQYREAA [E9T]	1.89
FQEYDTDCWVFRQRFRQFQYREAA [E9W]	2.02
FQEYDTDTEVFRQRFRQFQYREAA [C8T]	2.71
FQEYDTDGEVFRQRFRQFQYREAA [C8G]	2.08
FQEYDTDMEVFRQRFRQFQYREAA [C8M]	2.71
FQEYDTDEEVFRQRFRQFQYREAA [C8E]	3.42
FQEYDTDYEVFRQRFRQFQYREAA [C8Y]	2
FQEYDTDQEVFRQRFRQFQYREAA [C8Q]	2.21
FQEYDTDFEVFRQRFRQFQYREAA [C8F]	2.24
FQEYDTDSEVFRQRFRQFQYREAA [C8S]	2.88
FQEYDTDDEVFRQRFRQFQYREAA [C8D]	3.11
FQEYDTDREVFRQRFRQFQYREAA [C8R]	2.32
FQEYDTDHEVFRQRFRQFQYREAA [C8H]	3.01

Variant	protein stability index
FQEYDTDWEVFRQRFRQFQYREAA [C8W]	1.83
FQEYDTDPEVFRQRFRQFQYREAA [C8P]	2.7
FQEYDTDNEVFRQRFRQFQYREAA [C8N]	2.58
FQEYDTDIEVFRQRFRQFQYREAA [C8I]	2.49
FQEYDTDKEVFRQRFRQFQYREAA [C8K]	2.63
FQEYDTDLEVFRQRFRQFQYREAA [C8L]	2.04
FQEYDTDVEVFRQRFRQFQYREAA [C8V]	2.74
FQEYDTDAEVFRQRFRQFQYREAA [C8A]	2.76
FQEYDTDCEVFRYRFRQFQYREAA [Q13Y]	1.75
FQEYDTDCEVFRDRFRQFQYREAA [Q13D]	2.6
FQEYDTDCEVFRERFRQFQYREAA [Q13E]	2.51
FQEYDTDCEVFRSRFRQFQYREAA [Q13S]	2.4
FQEYDTDCEVFRHRFRQFQYREAA [Q13H]	2.53
FQEYDTDCEVFRFRFRQFQYREAA [Q13F]	1.87
FQEYDTDCEVFRNRFRQFQYREAA [Q13N]	2.58
FQEYDTDCEVFRVRFRQFQYREAA [Q13V]	2.53
FQEYDTDCEVFRMRFRQFQYREAA [Q13M]	1.67
FQEYDTDCEVFRARFRQFQYREAA [Q13A]	2.72
FQEYDTDCEVFRLRFRQFQYREAA [Q13L]	1.67
FQEYDTDCEVFRIRFRQFQYREAA [Q13I]	1.94
FQEYDTDCEVFRCRFRQFQYREAA [Q13C]	2.34
FQEYDTDCEVFRTRFRQFQYREAA [Q13T]	2.41
FQEYDTDCEVFRKRFRQFQYREAA [Q13K]	2.22
FQEYDTDCEVFRWRFRQFQYREAA [Q13W]	2.42

Variant	protein stability index
FQEYDTDCEVFRPRFRQFQYREAA [Q13P]	1.03
FQEYDTDCEVFRRRFRQFQYREAA [Q13R]	2.04
FQEYDTDCEVFRGRFRQFQYREAA [Q13G]	1.81
FQEYGTDCEVFRQRFRQFQYREAA [D5G]	1.78
FQEYHTDCEVFRQRFRQFQYREAA [D5H]	1.76
FQEYVTDCEVFRQRFRQFQYREAA [D5V]	1.23
FQEYMTDCEVFRQRFRQFQYREAA [D5M]	2.05
FQEYFTDCEVFRQRFRQFQYREAA [D5F]	1.65
FQEYTTDCEVFRQRFRQFQYREAA [D5T]	1.35
FQEYITDCEVFRQRFRQFQYREAA [D5I]	1.42
FQEYATDCEVFRQRFRQFQYREAA [D5A]	2.25
FQEYNTDCEVFRQRFRQFQYREAA [D5N]	2.68
FQEYCTDCEVFRQRFRQFQYREAA [D5C]	2.09
FQEYRTDCEVFRQRFRQFQYREAA [D5R]	1.79
FQEYYTDCEVFRQRFRQFQYREAA [D5Y]	2.55
FQEYKTDCEVFRQRFRQFQYREAA [D5K]	2.64
FQEYLTDCEVFRQRFRQFQYREAA [D5L]	2.5
FQEYSTDCEVFRQRFRQFQYREAA [D5S]	2.28
FQEYETDCEVFRQRFRQFQYREAA [D5E]	2.45
FQEYWTDCEVFRQRFRQFQYREAA [D5W]	1.29
FQEYQTDCEVFRQRFRQFQYREAA [D5Q]	1.57
FQEYDTDCEVFRQPFRQFQYREAA [R14P]	1.8
FQEYDTDCEVFRQQFRQFQYREAA [R14Q]	2.32
FQEYDTDCEVFRQLFRQFQYREAA [R14L]	2.37

Variant	protein stability index
FQEYDTDCEVFRQEFRQFQYREAA [R14E]	2.69
FQEYDTDCEVFRQCFRQFQYREAA [R14C]	2.23
FQEYDTDCEVFRQHFRQFQYREAA [R14H]	2.76
FQEYDTDCEVFRQIFRQFQYREAA [R14I]	1.9
FQEYDTDCEVFRQFFRQFQYREAA [R14F]	2.01
FQEYDTDCEVFRQDFRQFQYREAA [R14D]	2.17
FQEYDTDCEVFRQAFRQFQYREAA [R14A]	2.83
FQEYDTDCEVFRQGFRQFQYREAA [R14G]	2.67
FQEYDTDCEVFRQMFRQFQYREAA [R14M]	3.51
FQEYDTDCEVFRQNFRQFQYREAA [R14N]	2.62
FQEYDTDCEVFRQKFRQFQYREAA [R14K]	3.16
FQEYDTDCEWFRQRFRQFQYREAA [V10W]	2.13
FQEYDTDCEYFRQRFRQFQYREAA [V10Y]	2.62
FQEYDTDCEDFRQRFRQFQYREAA [V10D]	3.02
FQEYDTDCEQFRQRFRQFQYREAA [V10Q]	3.27
FQEYDTDCECFRQRFRQFQYREAA [V10C]	2.52
FQEYDTDCEPFRQRFRQFQYREAA [V10P]	2.92
FQEYDTDCEHFRQRFRQFQYREAA [V10H]	3
FQEYDTDCEMFRQRFRQFQYREAA [V10M]	2.63
FQEYDTDCEIFRQRFRQFQYREAA [V10I]	2.5
FQEYDTDCEEFRQRFRQFQYREAA [V10E]	3.08
FQEYDTDCENFRQRFRQFQYREAA [V10N]	2.67
FQEYDTDCERFRQRFRQFQYREAA [V10R]	2.37
FQEYDTDCEFFRQRFRQFQYREAA [V10F]	2.86

Variant	protein stability index
FQEYDTDCETFRQRFRQFQYREAA [V10T]	2.49
FQEYDTDCELFRQRFRQFQYREAA [V10L]	2.3
FQEYDTDCEAFRQRFRQFQYREAA [V10A]	2.2
FQEYDTDCEGFRQRFRQFQYREAA [V10G]	2.9
FQEYDTDCESFRQRFRQFQYREAA [V10S]	2.78
FQEYDTDCEKFRQRFRQFQYREAA [V10K]	2.35
FQEYDGDCEVFRQRFRQFQYREAA [T6G]	1.92
FQEYDFDCEVFRQRFRQFQYREAA [T6F]	2.22
FQEYDMDCEVFRQRFRQFQYREAA [T6M]	2.13
FQEYDHDCEVFRQRFRQFQYREAA [T6H]	2.1
FQEYDKDCEVFRQRFRQFQYREAA [T6K]	2.05
FQEYDDDCEVFRQRFRQFQYREAA [T6D]	2.62
FQEYDNDCEVFRQRFRQFQYREAA [T6N]	2.67
FQEYDEDCEVFRQRFRQFQYREAA [T6E]	2.17
FQEYDVDCEVFRQRFRQFQYREAA [T6V]	2.22
FQEYDQDCEVFRQRFRQFQYREAA [T6Q]	2.65
FQEYDWDCEVFRQRFRQFQYREAA [T6W]	2.11
FQEYDIDCEVFRQRFRQFQYREAA [T6I]	2.74
FQEYDLDCEVFRQRFRQFQYREAA [T6L]	1.89
FQEYDSDCEVFRQRFRQFQYREAA [T6S]	1.73
FQEYDYDCEVFRQRFRQFQYREAA [T6Y]	2.81
FQEYDADCEVFRQRFRQFQYREAA [T6A]	2.58
FQEYDCDCEVFRQRFRQFQYREAA [T6C]	1.94
FQEYDPDCEVFRQRFRQFQYREAA [T6P]	2.77

Variant	protein stability index
FQEYDTDCEVWRQRFRQFQYREAA [F11W]	2.37
FQEYDTDCEVKRQRFRQFQYREAA [F11K]	3.14
FQEYDTDCEVPRQRFRQFQYREAA [F11P]	3.33
FQEYDTDCEVCRQRFRQFQYREAA [F11C]	2.99
FQEYDTDCEVTRQRFRQFQYREAA [F11T]	3.15
FQEYDTDCEVERQRFRQFQYREAA [F11E]	3.51
FQEYDTDCEVMRQRFRQFQYREAA [F11M]	3.27
FQEYDTDCEVRRQRFRQFQYREAA [F11R]	4.69
FQEYDTDCEVQRQRFRQFQYREAA [F11Q]	3.24
FQEYDTDCEVGRQRFRQFQYREAA [F11G]	3.6
FQEYDTDCEVYRQRFRQFQYREAA [F11Y]	2.78
FQEYDTDCEVLRQRFRQFQYREAA [F11L]	2.54
FQEYDTDCEVNRQRFRQFQYREAA [F11N]	3.57
FQEYDTDCEVHRQRFRQFQYREAA [F11H]	3.45
FQEYDTDCEVVRQRFRQFQYREAA [F11V]	3.68
FQEYDTDCEVDRQRFRQFQYREAA [F11D]	3.95
FQEYDTDCEVSRQRFRQFQYREAA [F11S]	2.94
FQEYDTDCEVIRQRFRQFQYREAA [F11I]	2.72
FQEQDTDCEVFRQRFRQFQYREAA [Y4Q]	2.66
FQETDTDCEVFRQRFRQFQYREAA [Y4T]	1.7
FQEMDTDCEVFRQRFRQFQYREAA [Y4M]	2.25
FQESDTDCEVFRQRFRQFQYREAA [Y4S]	2.27
FQENDTDCEVFRQRFRQFQYREAA [Y4N]	2.33
FQERDTDCEVFRQRFRQFQYREAA [Y4R]	2.14

Variant	protein stability index
FQEPDTDCEVFRQRFRQFQYREAA [Y4P]	2.28
FQEVDTDCEVFRQRFRQFQYREAA [Y4V]	2.41
FQEYDTKCEVFRQRFRQFQYREAA [D7K]	2.02
FQEYDTGCEVFRQRFRQFQYREAA [D7G]	2.02
FQEYDTLCEVFRQRFRQFQYREAA [D7L]	1.93
FQEYDTYCEVFRQRFRQFQYREAA [D7Y]	1.34
FQEYDTPCEVFRQRFRQFQYREAA [D7P]	1.61
FQEYDTTCEVFRQRFRQFQYREAA [D7T]	2.08
FQEYDTSCEVFRQRFRQFQYREAA [D7S]	2.1
FQEYDTICEVFRQRFRQFQYREAA [D7I]	2.25
FQEYDTACEVFRQRFRQFQYREAA [D7A]	1.53
FQEYDTCCEVFRQRFRQFQYREAA [D7C]	1.1
FQEYDTNCEVFRQRFRQFQYREAA [D7N]	1.83
FQEYDTVCEVFRQRFRQFQYREAA [D7V]	1.34
FQEYDTMCEVFRQRFRQFQYREAA [D7M]	1.59
FQEYDTECEVFRQRFRQFQYREAA [D7E]	2.26
FQEYDTFCEVFRQRFRQFQYREAA [D7F]	2.27
FQEYDTQCEVFRQRFRQFQYREAA [D7Q]	2.68
FQEYDTRCEVFRQRFRQFQYREAA [D7R]	2.3
FQEYDTHCEVFRQRFRQFQYREAA [D7H]	2.12
